# Measured values published in patent publication US20210061922A1 (CITY OF HOPE, published 2021).
# Target: T1, CD16a (UniProt P08637 17-208, limits assumed)
# T1 construct: also called Fc receptor CD16
# Test: surface plasmon resonance traces (FIG. 10D)
# T1 sequence (P08637 17-208 limits assumed): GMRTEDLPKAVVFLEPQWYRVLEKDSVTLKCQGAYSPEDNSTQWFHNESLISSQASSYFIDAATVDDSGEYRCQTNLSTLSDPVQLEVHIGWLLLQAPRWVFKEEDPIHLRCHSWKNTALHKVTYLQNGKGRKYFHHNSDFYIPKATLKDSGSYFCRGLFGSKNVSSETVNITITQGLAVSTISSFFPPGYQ
binder,measurement,value
"Anti-CD16 nanobody (VHH, also called αCD16; anti-CD16 single domain antibody) VHH: EVQLTESGGEDVQAGGSLRLSCSASGLTFSSYNMGWFRRAPGKEREFVASITWSGRDTFYADSVKGRFTISRDNAKNTVYLQMSSLKPEDTATYYCAANPWPVAAPRSGTYWGEGTQVTV",binding result,binds
